Results taken from patent US7163817.

How the values were obtained:
[1] = target: FBD(4,5)-SK chimeric protein
[2] = target: FBD(4,5)-SK-FBD(4,5) chimeric protein
[3] = target: T1, Met-SK (recombinant SK purified from E. coli)
T1 chain: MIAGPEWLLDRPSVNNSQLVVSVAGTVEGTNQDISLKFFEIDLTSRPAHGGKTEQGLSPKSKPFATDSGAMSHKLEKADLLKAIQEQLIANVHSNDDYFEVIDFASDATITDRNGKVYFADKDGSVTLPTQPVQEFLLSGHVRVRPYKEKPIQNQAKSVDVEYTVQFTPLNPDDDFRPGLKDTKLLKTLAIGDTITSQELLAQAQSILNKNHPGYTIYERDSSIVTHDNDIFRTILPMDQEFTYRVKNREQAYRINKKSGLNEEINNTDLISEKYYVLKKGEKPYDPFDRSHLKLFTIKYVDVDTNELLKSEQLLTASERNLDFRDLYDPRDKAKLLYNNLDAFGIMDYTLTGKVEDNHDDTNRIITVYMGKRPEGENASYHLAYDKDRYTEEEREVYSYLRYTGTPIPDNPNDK

[4] = target: T2, SK-FBD(1,2) chimeric protein
T2 chain: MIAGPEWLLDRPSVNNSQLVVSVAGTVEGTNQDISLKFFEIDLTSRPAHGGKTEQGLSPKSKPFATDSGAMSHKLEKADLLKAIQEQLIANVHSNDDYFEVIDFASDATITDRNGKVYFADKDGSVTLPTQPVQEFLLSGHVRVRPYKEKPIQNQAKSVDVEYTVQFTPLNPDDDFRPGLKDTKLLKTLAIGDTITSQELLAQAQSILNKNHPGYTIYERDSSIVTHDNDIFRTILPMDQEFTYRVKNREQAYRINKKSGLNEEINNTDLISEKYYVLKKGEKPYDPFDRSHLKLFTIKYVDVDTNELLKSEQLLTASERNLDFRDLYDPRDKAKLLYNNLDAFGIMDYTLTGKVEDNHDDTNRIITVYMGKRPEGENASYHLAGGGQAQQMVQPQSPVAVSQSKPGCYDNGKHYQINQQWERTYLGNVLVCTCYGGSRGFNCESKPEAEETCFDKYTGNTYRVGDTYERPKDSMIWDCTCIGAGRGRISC

[5] = target: SK-FBD(4,5) chimeric protein, SK[residues 1-383]-(gly-gly-gly)-[FBD(4,5)]
[6] = target: T3, native SK from Streptococcus sp. (ATCC 12449)
T3 chain: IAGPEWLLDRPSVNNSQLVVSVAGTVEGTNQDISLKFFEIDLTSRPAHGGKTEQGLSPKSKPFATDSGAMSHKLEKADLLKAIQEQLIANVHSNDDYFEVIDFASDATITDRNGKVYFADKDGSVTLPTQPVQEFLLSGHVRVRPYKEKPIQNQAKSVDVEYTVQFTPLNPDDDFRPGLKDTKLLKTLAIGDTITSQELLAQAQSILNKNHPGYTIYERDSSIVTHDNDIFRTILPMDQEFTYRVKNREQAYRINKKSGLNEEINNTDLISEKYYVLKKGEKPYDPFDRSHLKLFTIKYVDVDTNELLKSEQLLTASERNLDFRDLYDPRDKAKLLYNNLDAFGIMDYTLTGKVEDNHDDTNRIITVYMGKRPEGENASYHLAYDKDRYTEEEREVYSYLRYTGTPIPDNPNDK

B1: human plasminogen (protein)
chain: EPLDDYVNTQGASLFSVTKKQLGAGSIEECAAKCEEDEEFTCRAFQYHSKEQQCVIMAENRKSSIIIRMRDVVLFEKKVYLSECKTGNGKNYRGTMSKTKNGITCQKWSSTSPHRPRFSPATHPSEGLEENYCRNPDNDPQGPWCYTTDPEKRYDYCDILECEEECMHCSGENYDGKISKTMSGLECQAWDSQSPHAHGYIPSKFPNKNLKKNYCRNPDRELRPWCFTTDPNKRWELCDIPRCTTPPPSSGPTYQCLKGTGENYRGNVAVTVSGHTCQHWSAQTPHTHNRTPENFPCKNLDENYCRNPDGKRAPWCHTTNSQVRWEYCKIPSCDSSPVSTEQLAPTAPPELTPVVQDCYHGDGQSYRGTSSTTTTGKKCQSWSSMTPHRHQKTPENYPNAGLTMNYCRNPDADKGPWCFTTDPSVRWEYCNLKKCSGTEASVVAPPPVVLLPDVETPSEEDCMFGNGKGYRGKRATTVTGTPCQDWAAQEPHRHSIFTPETNPRAGLEKNYCRNPDGDVGGPWCYTTNPRKLYDYCDVPQCAAPSFDCGKPQVEPKKCPGRVVGGCVAHPHSWPWQVSLRTRFGMHFCGGTLISPEWVLTAAHCLEKSPRPSSYKVILGAHQEVNLEPHVQEIEVSRLFLEPTRKDIALLKLSSPAVITDKVIPACLPSPNYVVADRTECFITGWGETQGTFGAGLLKEAQLPVIENKVCNRYEFLNGRVQSTELCAGHLAGGTDSCQGDSGGPLVCFEKDKYILQGVTSWGLGCARPNKPGVYVRVSRFVTWIEGVMRNN
**Q.** How did the Kplg (Km for HPG), steady-state HPG activation, chromogenic one-stage assay, linear phase after the lag [1] turn out when B1 was run?
**A.** Its Kplg (Km for HPG), steady-state HPG activation, chromogenic one-stage assay, linear phase after the lag is 0.16 µM.

**Q.** What about the Kplg (Km for HPG), steady-state HPG activation, chromogenic one-stage assay, linear phase after the lag [2] of the same protein?
**A.** The Kplg (Km for HPG), steady-state HPG activation, chromogenic one-stage assay, linear phase after the lag was 0.2 µM.

**Q.** And the Kplg (Km for HPG), steady-state HPG activation, chromogenic one-stage assay [3]?
**A.** The Kplg (Km for HPG), steady-state HPG activation, chromogenic one-stage assay was 0.18 µM.

**Q.** What about the Kplg (Km for HPG), steady-state HPG activation, chromogenic one-stage assay, linear phase after the lag [4] of the same protein?
**A.** The Kplg (Km for HPG), steady-state HPG activation, chromogenic one-stage assay, linear phase after the lag was 0.18 µM.

**Q.** And the Kplg (Km for HPG), steady-state HPG activation, chromogenic one-stage assay, linear phase after the lag [5]?
**A.** Its Kplg (Km for HPG), steady-state HPG activation, chromogenic one-stage assay, linear phase after the lag is 0.15 µM.

**Q.** What about the Kplg (Km for HPG), steady-state HPG activation, chromogenic one-stage assay [6] of the same protein?
**A.** Its Kplg (Km for HPG), steady-state HPG activation, chromogenic one-stage assay is 0.14 µM.
